Experimental data: the supplement of paper PMC9170038

Test system: MS2 coat protein
Assay: apparent KD of MS2 coat protein; designed switch direction (-1 OFF switch, 1 ON switch): -1; higher = weaker reporter binding
How it was run: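 Designed RNA switches with common flanks were transcribed on Illumina chips by stalled E. coli RNA polymerase and titrated with SNAP-549-labelled MS2 coat protein, from 0.7 or 1.5 nM doubling to 3 µM, in Tris-HCl pH 7.5 buffer with KCl, MgCl2, BSA, DTT, tRNA and Tween-20. Steps lasted 0.8–1.5 h (lowest) to 10–20 min (highest). Titrations ran without input, with 200 uM small-molecule ligand, or with an oligonucleotide input. Normalised cluster fluorescence was curve-fitted, and apparent KD is the per-design median over clusters.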

[1] = Eterna round: R95, input ligand: FMN 200 uM
[2] = Eterna round: R95, input ligand: microRNA oligo, concentration not stated
[3] = Eterna round: R95, input ligand: none
[4] = input ligand: microRNA oligo, concentration not stated

| Sequence | apparent KD of MS2 coat protein (input ligand: FMN 200 uM) [nM] | apparent KD of MS2 coat protein (input ligand: none) [nM] | apparent KD of MS2 coat protein [2] [nM] | also measured |
| --- | --- | --- | --- | --- |
| CCGCUGUGAGGAUAUUAGUAGUAGUCAGAAAAGACUAUUACUGAGAAGGCACAUGAGGAUCACCCAUGUGGCGG [Mat - Exclusion 4 - Eli Mod - D47] (Eterna round: R97, puzzle: Exclusion 4) | 31.4 | 21.5 | – | – |
| CCGGAAAAGGAGGAUAUAGGAGUCGAUAGACACCUAGAAGGCCUGACAUGAGGAUCACCCAUGUGUCCUACCGG [Fiskers Ex 6 - 92] (puzzle: Exclusion 6) | – | – | 17.9 | apparent KD of MS2 coat protein [1]: 38.3 nM; apparent KD of MS2 coat protein [3]: 16.8 nM |
| CCGGAAAUGCAGGAUAUCGUAUCGGAAACGAUACGAGAAGGGUAUACAUGAGGAUCACCCAUGUGUCCUACCGG [Fiskers Ex 6 - 21] (puzzle: Exclusion 6) | – | – | 20.6 | – |
| CCGGAACAUGAGGAUCACCCAUGUCAGGAUAUCUCAAAAUCGUCGAUAGACGAUAACAAGAGAAGGGACACCGG [Mat - Exclusion 1 - Eli Mod - D29] (Eterna round: R97, puzzle: Exclusion 1) | 23.4 | 20.8 | – | – |
| CCGGAACAUGAGGAUCACCCAUGUGAGGAUAUCGUACGUUCGUCGAAAGACGAUCGUACGAGAAGGCACGCCGG [Eli x1 4.33] (Eterna round: R97, puzzle: Exclusion 1) | 17.2 | 14.6 | – | – |
| CCGGAUAUGCAGGAUAUCGUAUCGGAUACGAUACGAGAAGGGUAUACAUGAGGAUCACCCAUGUGCCUUACCGG [Mat - Exclusion 6 - Eli Mod - D83] (puzzle: Exclusion 6) | – | – | 18 | – |
| CCGGCGUGGUGCGGUUGUCGUUCGACAUGAGGAUCACCCAUGUAGGAUAUGCGCGUGGUCGCGCCGCAGAAGGGCAUCGUUUGG [Random, 15% A] (Eterna round: R96, puzzle: Exclusion NG 3) | 10.7 | 14.5 | – | apparent KD of MS2 coat protein [4]: 10.7 nM |
| CCGGCUGCUGUGAGGAUAUGCCUGUGGGUGCGUGGGCAGAAGGCACAUGAGGAUCACCCAUGUCCUGCGGUCCC [salish99_bmx4_r4_114] (Eterna round: R97, puzzle: Brourd's mod of Exclusion 4) | 21 | 26.6 | – | – |
| CCGUACGGAGGAUAUACAUGAGGAUCACCCAUGUGUCCGCGCGUGGGAACACGUAAUAGUAGAAGGCCGUCCGG [jl-ex3-4.78 Brourd automod] (Eterna round: R97, puzzle: Exclusion 3) | 491 | 59.4 | – | – |
| CCUAAACAUGAGGAUCACCCAUGUGAGGAUAUGAUGCGAAUAAAGAAAGAAGAAAGCAUCAGAAGGCACAUAGG (Eterna round: R96, puzzle: Exclusion 1) | – | – | – | apparent KD of MS2 coat protein [4]: 131 nM |
| CCUAUGUGAGGAUAUCACUGGUCUGCUCACUAGAUGAUCAGUGAGAAGGCACAUGAGGAUCACCCAUGUCAGUG [Exclusion 4 - Mod Brourd Ex 4-3 - 53] (puzzle: Exclusion 4) | – | – | 92.9 | – |
| CCUAUGUGAGGAUAUCACUGGUCUUCUUUUAUUUUUUACAGUGAGAAGGCACAUGAGGAUCACCCAUGUCGGUG [Ex4 - 3 - 49] (Eterna round: R96, puzzle: Exclusion 4) | 98.4 | 192 | – | apparent KD of MS2 coat protein [4]: 115 nM |
| CCUAUGUGAGGAUAUCACUGGUCUUCUUUUAUUUUUUACAGUGAGAAGGCACAUGAGGAUCACCCAUGUCGGUG [Ex4 - 3 - 49] (puzzle: Exclusion 4) | – | – | 151 | – |
| CCUAUGUGAGGAUAUCACUGGUCUUUUCAUUGGAUGAUUAGUGAGAAGGCACAUGAGGAUCACCCAUGUCGGUG [Ex4 - 3 - 52] (puzzle: Exclusion 4) | – | – | 34.6 | – |
| CCUCCACAUGAGGAUCACCCAUGUGAGGAUAUCCUGCGAGGAUCAAAAGAUCCUCGUGGGAGAAGGCACAUGAA [Omei Ex1 A9] (Eterna round: R97, puzzle: Exclusion 1) | 241 | 39.3 | – | – |
| CCUCCGUAUAAGGAUAUCGUCCAGGAAACUGGACGAGAAGGUAUGACAUGAGGAUCACCCAUGUGAAAGUGAUG [Mod of Brourd 25 - Jieux - Exclusion 6] (Eterna round: R97, puzzle: Exclusion 6) | 212 | 71.4 | – | – |
| CCUCGACGGUAGGAUAUCGUCAAACUAUUGUGAUGAGAAGGACUGACAUGAGGAUCACCCAUGUUAACGUGAUA [Exclusion 6 - 7:b] (puzzle: Exclusion 6) | – | – | 17.1 | – |
| CCUCGUUGGGAGGAUAUCCUUUAGAUUGGAGGAGGAGAAGGCUCGACAUGAGGAUCACCCAUGUAAAAUUUAAA [-18.7, -17.5 kcal, A 31%] (Eterna round: R97, puzzle: Exclusion 6) | 274 | 73.3 | – | – |

| Sequence | apparent KD of MS2 coat protein (input ligand: FMN 200 uM) [nM] | apparent KD of MS2 coat protein (input ligand: none) [nM] | apparent KD of MS2 coat protein [2] [nM] | also measured |
| --- | --- | --- | --- | --- |
| CCUCUACAUGAGGAUCACCCAUGUGAGGAUAUCUCGGAGCAACCACUUAAGGCGCUCCAGAGAAGGCACGUGUA [Erralaqu] (puzzle: Exclusion 1) | – | – | 19.5 | – |
| CCUCUACAUGAGGAUCACCCAUGUGAGGAUAUGUUGACGAGCCAGAAAUGGCUGGUCAACAGAAGGCAUAUGUA [Exclusion 1 (Mod 2.1 solution 16 by Eternabot)] (Eterna round: R97, puzzle: Exclusion 1) | 43.7 | 23.7 | – | – |
| CCUCUGUAAGGAUAUACGGAGACCACUGGAAUCAGUGGAAAGUAGAAGGUACAUGAGGAUCACCCAUGUGAGAA [Laveatisce] (Eterna round: R96, puzzle: Exclusion 4) | – | – | – | apparent KD of MS2 coat protein [4]: 67.9 nM |
| CCUCUGUAAGGAUAUACGGAGACCACUGGAAUCAGUGGAAAGUAGAAGGUACAUGAGGAUCACCCAUGUGAGAA [Laveatisce] (puzzle: Exclusion 4) | – | – | 36.2 | apparent KD of MS2 coat protein [1]: 36.5 nM; apparent KD of MS2 coat protein [3]: 49.3 nM |
| CCUCUGUGAGGAUAUUGGCAACACUGCACCCAAUAAAGCGCCGAGAAGGCACAUGAGGAUCACCCAUGUACGCA [Eternabot (L1) Solution 66] (Eterna round: R97, puzzle: Exclusion 4) | 22.4 | 18.4 | – | – |
| CCUCUUGGGCAAGGAUAUCCUGCGCGGUUCCGGUUCGUGUCUGUCACAUGAGGAUCACCCAUGUGGGAGAAGGUGCCUGCGGUC [Design 78] (Eterna round: R96, puzzle: Exclusion NG 2) | – | – | – | apparent KD of MS2 coat protein [4]: 12 nM |
| CCUUAUUCACAGGAUAUGCUCAUCUAAUGAUGAGCAGAAGGGUGGACAUGAGGAUCACCCAUGUUUAUCAAUGG [Omei Ex6 D5] (Eterna round: R97, puzzle: Exclusion 6) | 545 | 749 | – | – |
| CCUUGUGUUGAGGAUAUGCGCCGGCUCGCUGGCGCAGAAGGCGGCACAUGAGGAUCACCCAUGUCAGUUCGCGG [salish99_ex6_r004_013] (Eterna round: R97, puzzle: Exclusion 6) | 426 | 116 | – | – |
| CGAAGUAGAAACCGAUCCUACAUGAGGAUCACCCAUGUAGCAAGACGUGCACGCGAAGCUCGUCAGACUACCAGAAC [salish99_TOv1_r3_013] (puzzle: Sensor v3, turn-off variant 1) | – | – | 332 | apparent KD of MS2 coat protein [1]: 312 nM; apparent KD of MS2 coat protein [3]: 420 nM |
| CGAGCUAAUGUGAGGAUAUACCUAUGGAUACAUAGGUAGAAGGCACAUGAGGAUCACCCAUGUCCUAUAGCUCG [jl-bmx4-4.55] (Eterna round: R97, puzzle: Brourd's mod of Exclusion 4) | 241 | 304 | – | – |
| CGAGUGUAAGGAUAUUCGGCGCCAGGGAACGACCUGGCGUAGAAGAAGGUACAUGAGGAUCACCCAUGUGGUUA [Issobi] (puzzle: Exclusion 4) | – | – | 142 | – |
| CGAUAAAUGACAGGAUAUUACGCUAAUUGGGACCCUUAACCGACAUGAGGAUCACCCAUGUUUUAUAAGAAGGGUCGUUUGUCA [Eternabot solution 47] (Eterna round: R96, puzzle: Exclusion NG 2) | 21 | 13.2 | – | apparent KD of MS2 coat protein [4]: 11.2 nM |
| CGAUAUUAUGUCAGGAUAUACAUUGCGAAAGCAAUGUAGAAGGGACAUGAGGAUCACCCAUGUCCUAACUAUCG [Omei A 2] (puzzle: Brourd's mod of Exclusion 4) | – | – | 12.9 | – |
| CGAUGCUCGAGUCGACAUGAGGAUCACCCAUGUAGAGUUAGCGAGGAUAUCGGAGACACAUAGUAUGAGAAGGCGCGAACCUGA [Ex NG3 #19] (Eterna round: R96, puzzle: Exclusion NG 3) | 36.2 | 16.7 | – | apparent KD of MS2 coat protein [4]: 12.3 nM |
| CGAUGUGGAGUGAGGAUAUCGUGUUCGAAAGAACGUGAGAAGGCACAUGAGGAUCACCCAUGUGAUACAUGUCG [Omei Ex4B A16] (Eterna round: R97, puzzle: Brourd's mod of Exclusion 4) | 92.2 | 24.6 | – | – |
| CGCAGACAUGAGGAUCACCCAUGUCAGGAUAUACCUCAUAGCACCAGCUUAUGUAAGGGUAGAAGGGACUUGGA [Eternabot (L1) Solution 81] (Eterna round: R97, puzzle: Exclusion 1) | 86.1 | 56.8 | – | – |
| CGCCUCAGAGGAUAUACUACGGUUUCCUCAUGAUGCGGCCAACAUGAGGAUCACCCAUGUAGAAGGCUGAGAAA [EX2 A.5] (Eterna round: R97, puzzle: Exclusion 2) | 17.3 | 52.2 | – | – |
| CGCCUCAGCACAUGAGGAUCACCCAUGUACAAAAGUCCCAGGGAGGAUAUCUGCUGGUUGACUAGAGAGAAGGCCCAUACUAAC [Eternabot solution 45] (Eterna round: R96, puzzle: Exclusion NG 3) | 42.6 | 45 | – | apparent KD of MS2 coat protein [4]: 36.6 nM |
